This passage reports Km results from publication PMC7112232, “Computational design of substrate selective inhibition” (PLoS Computational Biology, 2020).

The Km is the substrate concentration at which the rate is half of its maximum.

Substrate in this series: NC(=O)[C@@H]1CCCN1C(=O)[C@H](Cc1cnc[nH]1)NC(=O)[C@@H]1CCC(=O)N1
Put plainly: RP-HPLC cleavage assay with purified rhPOP, Michaelis-Menten fit (Km). Format: biochemical, Homo sapiens. As to conditions: occupies the S3-S1' sub-pockets.

B1: Prolyl Oligopeptidase (POP) (Homo sapiens) (protein)
chain: MLSLQYPDVYRDETAVQDYHGHKICDPYAWLEDPDSEQTKAFVEAQNKITVPFLEQCPIRGLYKERMTELYDYPKYSCHFKKGKRYFYFYNTGLQNQRVLYVQDSLEGEARVFLDPNILSDDGTVALRGYAFSEDGEYFAYGLSASGSDWVTIKFMKVDGAKELPDVLERVKFSCMAWTHDGKGMFYNSYPQQDGKSDGTETSTNLHQKLYYHVLGTDQSEDILCAEFPDEPKWMGGAELSDDGRYVLLSIREGCDPVNRLWYCDLQQESSGIAGILKWVKLIDNFEGEYDYVTNEGTVFTFKTNRQSPNYRVINIDFRDPEESKWKVLVPEHEKDVLEWIACVRSNFLVLCYLHDVKNILQLHDLTTGALLKTFPLDVGSIVGYSGQKKDTEIFYQFTSFLSPGIIYHCDLTKEELEPRVFREVTVKGIDASDYQTVQIFYPSKDGTKIPMFIVHKKGIKLDGSHPAFLYGYGGFNISITPNYSVSRLIFVRHMGGILAVANIRGGGEYGETWHKGGILANKQNCFDDFQCAAEYLIKEGYTSPKRLTINGGSNGGLLVAACANQRPDLFGCVIAQVGVMDMLKFHKYTIGHAWTTDYGCSDSKQHFEWLVKYSPLHNVKLPEADDIQYPSMLLLTADHDDRVVPLHSLKFIATLQYIVGRSRKQSNPLLIHVDTKAGHGAGKPTAKVIEEVSDMFAFIARCLNVDWIP
notes: recombinant human POP (rhPOP), GST moiety removed
Take B1: the Km came out at 690 µM.
